In US20220332804A1 (CSL INNOVATION, published 2022) one finds Kd data, which are given here for one molecule.

Test in all cases: SPR, mAb captured, C2 mutant analyte;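 further: Anti-C2 mAbs captured on goat anti-human IgG Biacore CM5 chips, alanine or serine C2 surface mutants flowed over at 37 °C, double-referenced sensorgrams fitted to a 1:1 binding model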
In assay [1] the target is T1, human C2 D404A (human, UniProt P06681 21-752).
T1 sequence: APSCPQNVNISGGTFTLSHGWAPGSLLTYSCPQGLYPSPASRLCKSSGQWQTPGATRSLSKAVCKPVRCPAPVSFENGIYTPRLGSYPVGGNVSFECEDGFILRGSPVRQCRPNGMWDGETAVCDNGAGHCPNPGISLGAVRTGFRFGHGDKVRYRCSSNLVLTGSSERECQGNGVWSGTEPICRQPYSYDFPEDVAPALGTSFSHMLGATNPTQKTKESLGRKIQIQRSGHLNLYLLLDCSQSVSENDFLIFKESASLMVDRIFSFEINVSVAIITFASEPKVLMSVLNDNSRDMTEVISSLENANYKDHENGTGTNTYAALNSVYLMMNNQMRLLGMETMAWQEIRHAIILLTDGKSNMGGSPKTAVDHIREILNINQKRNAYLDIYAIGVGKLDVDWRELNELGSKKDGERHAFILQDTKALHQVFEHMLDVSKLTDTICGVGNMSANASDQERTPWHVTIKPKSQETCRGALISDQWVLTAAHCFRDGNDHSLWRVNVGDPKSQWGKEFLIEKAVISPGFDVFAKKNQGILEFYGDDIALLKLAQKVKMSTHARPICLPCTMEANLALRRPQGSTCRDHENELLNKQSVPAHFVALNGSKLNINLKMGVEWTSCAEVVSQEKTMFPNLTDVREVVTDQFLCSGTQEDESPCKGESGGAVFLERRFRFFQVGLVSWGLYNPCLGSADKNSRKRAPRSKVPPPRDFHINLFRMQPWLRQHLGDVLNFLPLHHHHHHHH
Method: (§1) Surface plasmon resonance (SPR, Biacore) was used for all binding affinity analyses. In brief, goat anti-human IgG was directly immobilised onto the carboxymethyl dextran surface of CM5 sensorchips to approximately 12,000 RU using standard NHS/EDC chemistry at pH 5. The immobilised antibody surface was pre-conditioned with ten injections of polyclonal human IgG (Privigen 60 s) prepared at 1 μg/mL. Ligands (anti-C2 mAbs) were captured at the beginning of each cycle as described below. An adjacent spot or flow cell in which only Polyclonal IgG was capture was used as a reference surface. The goat anti-human IgG Fc antibody surface was regenerate in 100 mM H3PO4, injected for 45 seconds at the end of each cycle. Experiments were performed at 37° C. and the flow rate of each experiment was kept constant at 30 μL/min.
(§2) Sensogram data was double-referenced against a reference anti-IgG surface (i.e. minus anti-C2 mAb) and blank buffer injections obtained within each experiment. The binding data was fit to 1:1 (kinetic or steady-state) model using local Rmax and null refraction index (RI=0) when appropriate. Buffers and solutions were filtered (0.22 μm) prior to use.

Assay [2] deals with T2, human C2 A470S (human, UniProt P06681 21-752).
T2 sequence: T1 sequence with A384D, A450S
Method: as §1, §2

The target of assay [3] is T3, human C2 N325A (human, UniProt P06681 21-752).
T3 sequence: T1 sequence with N305A, A384D
Method: as §1, §2

Assay [4] deals with T4, human C2 D431A (human, UniProt P06681 21-752).
T4 sequence: T1 sequence with A384D, D411A
Method: as §1, §2

Substitutions are numbered along the chain they refer to.

B1: RF16-214 (antibody, V domains shown)
VH: EVQLLESGGGLVQPGGSLRLSCAASGFTFSWYQMMWVRQAPGKGLEWVSRIYPSGGGTAYADSVKGRFTISRDNSKNTLYLQMNSLRAEDTAVYYCARDAGYGDNWGQGTLVTVSS
VL: QSALTQPPSVSVSPGQTASITCSGDKLGEKYASWYQQKAGQSPVMVIYQDRKRPSGIPERFSGSNSGNTATLTISGTQAMDEADYYCQAWDTRAVVFGGGTKLTVLG
What is called Kd is the free concentration of one partner at which half of the binding sites on the other are occupied at equilibrium, for simple one-to-one binding. A lower Kd goes with a tighter complex. Turning to B1, the Kd in assay [1] was 77.6 nM; in assay [2], 32.8 nM; in assay [3], 328 nM; in assay [4], 71.8 nM.
